B1: untagged p16INK4a [not stated] / GSTCDK4 [human] (parent complex)
chain 1: MEPAAGSSMEPSADWLATAAARGRVEEVRALLEAGALPNAPNSYGRRPIQVMMMGSARVAELLLLHGAEPNCADPATLTRPVHDAAREGFLDTLVVLHRAGARLDVRDAWGRLPVDLAEELGHRDVARYLRAAAGGTRGSNHARIDAAEGPSDIPD
chain 2: MATSRYEPVAEIGVGAYGTVYKARDPHSGHFVALKSVRVPNGGGGGGGLPISTVREVALLRRLEAFEHPNVVRLMDVCATSRTDREIKVTLVFEHVDQDLRTYLDKAPPPGLPAETIKDLMRQFLRGLDFLHANCIVHRDLKPENILVTSGGTVKLADFGLARIYSYQMALTPVVVTLWYRAPEVLLQSTYATPVDMWSVGCIFAEMFRRKPLFCGNSEADQLGKIFDLIGLPPEDDWPRDVSLPRGAFPPRGPRPVQSVVPEMEESGAQLLLEMLTFNPHKRISAFRALQHSYLHKDEGNPE

Variants of: B1
Assay: HTRF displacement assay; CDK4 8 nM; value read at the highest [INK] point, about 500 nM; read off a plot

Variant	response [% Inhibition]
chain 1 D84N	~58
